Experimental findings from patent US20210017284A1 (ABEOME, published 2021) are described below.

Assay [1] concerns the target T1, human PD-L1 (human, UniProt Q9NZQ7 19-238, limits assumed).
T1 construct: also called CD274; B7-H1
Nature of the assay: SPR (format not described).

The target of assay [2] is T2, cynomolgus monkey PD-L1 (cynomolgus monkey, UniProt G7PSE7 19-238).
T2 construct: PD-L1 is implied
Nature of the assay: SPR (format not described).

T1 sequence (Q9NZQ7 19-238 limits assumed): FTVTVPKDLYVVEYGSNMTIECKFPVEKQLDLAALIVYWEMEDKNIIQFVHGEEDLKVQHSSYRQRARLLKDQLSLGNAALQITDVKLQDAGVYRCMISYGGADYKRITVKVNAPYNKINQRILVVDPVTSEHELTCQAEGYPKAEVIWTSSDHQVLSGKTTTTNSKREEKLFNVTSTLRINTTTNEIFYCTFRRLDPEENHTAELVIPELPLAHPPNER
T2 sequence (G7PSE7 entry or part of it): as the sequence (Q9NZQ7 19-238 limits assumed) above, with A33T, A34S, S62N, R68Q, Q82R, F173L, T185A, T192I, H215L counted along it

B1: hABM101.11 (IgG4) (antibody, V domains shown)
VH: QVQLVQSGPEVKKPGASVKVSCKASGYTFTENSMHWVRQSHGKSLEWMGGINPNNGGTSYNQKFKGKVTMTTDKSTSTAYMELRSLTSDDTAVYYCARPYYYGYREDYFDYWGQGTTLTVSS
VL: EIVMTQSPGTLSLSPGERATLSCRASSSVSYMYWYQQKPGQAPRPLIYLTSNLASGIPDRFSGSGSGTDYTLTISRLEPEDFAVYYCQQWSSYPPTFGQGTKVEIKR
As a reminder, the Kd is the equilibrium constant for the complex coming apart. For the molecule B1, in assay [1], the dissociation constant (Kd) stood at 0.349 nM.

B2: hABM101.11 (IgG1) (antibody, V domains shown)
VH: B1 VH
VL: B1 VL
Consider B2, for which the figures for the Kd in assay [1] and in assay [2] were 0.374 nM and 0.579 nM, respectively.
